Experimental findings from publication doi:10.1101/691972, “Structure of D. melanogaster ARC1 reveals a repurposed molecule with characteristics of retroviral Gag” (bioRxiv, 2019) are described below.

Numbering of substitutions follows the chain as printed. Names and notes keep the numbering of the source.

Data set [1] concerns the molecule itself. In words: crystal structure; Se-Met dARC1 CA; orthorhombic (P212121, 1.7 Å) and hexagonal (P6122, 2.3 Å) crystal forms, each with a dimer in the asymmetric unit; NaCl, HEPES pH 7.5 type conditions, 18 °C.
Data set [2] deals with the molecule itself. Nature of the data set: SEC-MALS; SEC-MALLS; 25-400 µM loaded in 100 µL on Superdex INCREASE 200 10/300 GL; 20 mM Tris-HCl, 150 mM NaCl, 0.5 mM TCEP, 3 mM NaN3, pH 8.0.

B1: Se-Met substituted dARC1 CA (residues S39-N205) (domain or fragment, Drosophila melanogaster)
chain: SRGKGNFSACTHSFGGTRDHDVVEEFIGNIETYKDVEGISDENALKGISLLFYGMASTWWQGVRKEATTWKEAIALIREHFSPTKPAYQIYMEFFQNKQDDHDPIDTFVIQKRALLAQLPSGRHDEETELDLLFGLLNIKYRKHISRHSVHTFKDLLEQGRIIEHNNPLE
modifications: seleno-methionine substituted (incorporation confirmed by ESI-MS)
notes: dARC1, Drosophila melanogaster, Uniprot Q7K1U0, residues 39-205 (CA domain); the added N-terminal Met was processed; Protein of the two solved crystal forms (orthorhombic and hexagonal); also called SeMet dARC1 CA; seleno-methionine derivative protein; source: E. coli B834 (DE3) in seleno-methionine medium, purified by the identical procedure (Ni-NTA, carboxypeptidase A, SEC); not shown: His6, …
On to B1, for which the binding result in data set [1] is on record as “binds”.

B2: dARC1 CA (capsid domain region of D. melanogaster dARC1, residues S39-N205) (domain or fragment, Drosophila melanogaster)
chain: B1 chain
notes: dARC1, Drosophila melanogaster, Uniprot Q7K1U0, residues 39-205 (CA domain); the added N-terminal Met was processed (confirmed by ESI-MS); Native (non-SeMet) protein used for SEC-MALLS and AUC; also called dARC CA; dARC1 CA (S39-N205); source: E. coli BL21 (DE3), purified (Ni-NTA, carboxypeptidase A digestion of the His-tag, Superdex 75 SEC); not shown: His6, C-terminal, cleaved
As to B2, the “stoichiometry N” value in data set [2] was 2.

B3: dARC1 CA (F133A) (domain or fragment, Drosophila melanogaster)
chain: B1 chain with F95A
notes: dARC1, Drosophila melanogaster, Uniprot Q7K1U0, residues 39-205 (CA domain) with F133A; also called F133A mutation; source: E. coli BL21 (DE3), purified
For B3, the binding result in data set [2] is “binds”.
